Tests used:
[1] = target: T1, KCNQ1-mCherry (human KCNQ1, C-terminally mCherry-tagged) (human, UniProt P51787 1-676); assay: Number and Brightness (N&B) analysis of TIRF image sequences; living CHO cells co-transfected with KCNE2-mEGFP and KCNQ1-mCherry; cells with fast micro-diffusion, E2f(Q1) (Dmicro > 0.02 µm^2 s^-1); 37 °C, 5% CO2; GAP-mEGFP as monomeric reference; details: partners not purified
T1 construct: KCNQ1 (Kv7.1) alpha subunit, human; cDNA in a CMV-based expression construct; also called Q1 in E2(Q1); source: CHO cells, co-transfected (Lipofectamine 3000), in living cells; not shown: mCherry, C-terminal, kept
T1 sequence (looked up): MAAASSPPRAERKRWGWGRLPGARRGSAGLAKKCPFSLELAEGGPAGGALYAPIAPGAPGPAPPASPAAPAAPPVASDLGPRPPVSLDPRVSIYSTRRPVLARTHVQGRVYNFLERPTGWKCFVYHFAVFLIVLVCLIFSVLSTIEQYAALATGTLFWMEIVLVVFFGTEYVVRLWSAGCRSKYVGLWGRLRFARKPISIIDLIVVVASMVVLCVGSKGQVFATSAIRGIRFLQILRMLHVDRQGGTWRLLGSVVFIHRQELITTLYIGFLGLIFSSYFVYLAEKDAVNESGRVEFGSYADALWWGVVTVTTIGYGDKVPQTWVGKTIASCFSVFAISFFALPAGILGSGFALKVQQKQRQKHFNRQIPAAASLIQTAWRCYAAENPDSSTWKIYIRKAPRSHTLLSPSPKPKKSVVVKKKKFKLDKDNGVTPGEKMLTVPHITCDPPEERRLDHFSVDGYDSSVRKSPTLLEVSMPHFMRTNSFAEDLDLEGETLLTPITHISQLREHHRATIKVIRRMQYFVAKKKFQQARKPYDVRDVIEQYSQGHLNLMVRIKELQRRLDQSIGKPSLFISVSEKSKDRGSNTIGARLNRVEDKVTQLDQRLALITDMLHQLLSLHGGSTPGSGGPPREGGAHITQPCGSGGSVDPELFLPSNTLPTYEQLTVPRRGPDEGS

[2] = target: the molecule itself; assay: Number and Brightness (N&B) analysis of TIRF image sequences; living CHO cells transfected with one mEGFP-tagged subunit alone; plasma membrane, 37 °C, 5% CO2; GAP-mEGFP as monomeric reference; oligomerization state corrected for protein maturation and misfolding

B1: KCNE2-mEGFP (human KCNE2, C-terminally mEGFP-tagged) (natural protein, UniProt Q9Y6J6 1-123, looked up)
chain: MSTLSNFTQTLEDVFRRIFITYMDNWRQNTTAEQEALQAKVDAENFYYVILYLMVMIGMFSFIIVAILVSTVKSKRREHSNDPYHQYIVEDWQEKYKSQILNLEESKATIHENIGAAGFKMSP
notes: KCNE2, human, single transmembrane segment beta subunit; cDNA in a CMV-based expression construct; also called KCNE2 subunit; E2(Q1), E2f(Q1), E2s(Q1) when co-expressed with KCNQ1-mCherry; source: CHO cells, transfected (Lipofectamine 3000), in living cells; not shown: mEGFP, C-terminal, kept
[1]
  stoichiometry N: 4 E2 subunits per KCNQ1-KCNE2 complex
[2]
  stoichiometry N: 2

Reference: PMC8140153, “Fluorescence Fluctuation Spectroscopy enables quantification of potassium channel subunit dynamics and stoichiometry” (Scientific Reports, 2021)
